Patent US20240417475A1 (AFFIMED, published 2024)

Assays:
[1] = target: T1, human FOLR1 endogenously expressed on tumor cell lines (human, UniProt P15328 25-234); assay: flow cytometry on OVCAR-3 cells (FOLR1 medium) at 37 °C, FITC anti-human IgG detection
T1 construct: whole, on cells; also called FOLR1-positive tumor cell lines; FOLR1+ target cells
Description: (§1) Cells were collected and centrifuged at 400×g, 5 min, 4° C. Cell pellets were resuspended in FACS buffer (PBS (Invitrogen, cat.: 392-0434) containing 2% h.i. FCS (Invitrogen, cat.: 10500-064), and 0.1% sodium azide (Sigma, cat.: S8032)) at 1-5×10⁶ cells/mL. 100 μL/well of the cell suspension were transferred into U-shaped, 96-well micro plates (0.1-0.5×10⁶ cells per well), cells were pelleted at 400×g, 5 min, 4° C., and resuspended in 100 μL/well of serial dilutions of the indicated antibodies in FACS buffer. After 40-50 min incubation at 37° C., cells were washed 3-times with ice-cold FACS buffer. […] After the final incubation step, cells were washed 2-times with ice-cold FACS buffer, and the cell pellet was resuspended in 100 μL FACS buffer. Fluorescence intensities of >1×10⁴ viable cells were analyzed by flow cytometry and the median fluorescence intensity (MFI) was determined for each sample.

[2] = target: T2, human CD16A (158V) expressed on CHO cells (cAg_35) (human, UniProt P08637 17-254); assay: flow cytometry on huCD16A (158V)-transfected CHO cells (printed sAg_35), on ice, FITC goat anti-human IgG detection
T2 construct: also called huCD16A (158V)
Description: (§2) After washing in FACS buffer, cells were incubated in 50 μL FACS buffer without antibodies or with titrated antibodies starting at a concentration of 1000 nM followed by elven 3-fold serial dilutions for 40-50 min on ice in the dark. […] After washing, binding was measured by flow cytometry and mean fluorescence intensities (MFI) of cell samples were calculated and corrected for background staining using control cells stained with secondary antibodies only.

[3] = target: T3, human FOLR1-mFc_Avi-tag (sAg_303) (human, UniProt P15328 25-234, limits assumed); assay: ELISA, plate coated with human FOLR1-mFc_Avi-tag, anti-human Fab-HRP detection, A450
T3 construct: also called human FOLR1 (sAg_303); recombinant human FOLR1
Description: (§3) 96 well ELISA plates (F96 Maxisorp Immuno Plate, Nunc, cat: 442404) were coated overnight at 4° C. with 50 μL/well of 10 μg/mL human FOLR1-mFc_Avi-tag in DPBS. After overnight incubation plates were washed three times with PBST and blocked with Candor Blocking solution for 2 h at RT under mild agitation. […] After incubation with the secondary antibodies, the plate was washed five times with PBST and one time with PBS. Chromogenic substrate (1:1 mixture of TMB:TMBB, SeraCare cat: 5120-0048 and 5120-0037) was added and the reaction was stopped by addition of an equal volume of 0.5 M H₂SO₄ after sufficient color development. Absorbance at 450 nm was measured in an ELISA plate reader (Sunrise Absorbance Reader 901000833, Schoeller Instruments). The absorbance values were corrected by subtracting the background of the respective secondary antibody and fitted with a one site binding function (hyperbola) using GraphPad Prism (version 9.3.1. GraphPad Software, La Jolla California USA). KD is the concentration of ligand required to reach half-maximal binding.

[4] = target: T4, cynomolgus CD16 expressed on CHO cells (cAg_36) (cynomolgus, UniProt Q8SPW2 17-254); assay: flow cytometry on cyCD16-transfected CHO cells (cAg_36), on ice, FITC goat anti-human IgG detection
T4 construct: whole, on cells; also called cyCD16
Description: as §2

[5] = target: T1, human FOLR1 endogenously expressed on …; assay: flow cytometry on OVCAR-3 cells, 37 C, one-site fit of MFI, mean
Description: as §1
(§4) Equilibrium dissociation constants (KD) of antibody binding, mean and standard deviation (SD) were calculated by plotting MFI values and fitting a non-linear regression model for one-site binding to hyperbolic dose-response curves using GraphPad Prism for Windows (v9; GraphPad Software; La Jolla California USA).
(§5) Specific antibody binding capacity (SABC) as a marker for FOLR1 expression level on cells was determined on all tumor cell lines using QIFIKIT.

[6] = target: T5, CD16A endogenously expressed on primary human NK cells (human, UniProt P08637 17-254); assay: flow cytometry on primary human NK cells at 37 °C, biotinylated antibody, streptavidin-FITC, without polyclonal human IgG
Description: (§6) Frozen NK cells were thawed, and viability was determined with trypan blue (Sigma-Aldrich, cat.: T8154). Cells have been centrifuged at 400×g, 5 min, 4° C. Cell pellets were resuspended in FACS buffer PBS (Invitrogen, cat.: 392-0434) containing 2% h.i. FCS (Invitrogen, cat.: 10500-064), and 0.1% sodium azide (Sigma, cat.: S8032) at 2×10⁶ cells/mL. 100 μL/well of the cell suspension were transferred into U-shaped 96 well plates, cells were pelleted at 400×g, 5 min. 4° C., and resuspended in 50 μL/well of diluted antibody constructs. […] After 40-50 minutes' incubation at 37° C., cells were washed 3-times with ice-cold FACS buffer. […] After the final incubation step, cells were washed 2-times with ice-cold FACS buffer, and the cell pellet was resuspended in 50 μL FACS buffer. Fluorescence intensity of >1×10⁴ viable cells was analyzed by flow cytometry and the median fluorescence intensity (MFI) was determined for each sample.

[7] = target: T1, human FOLR1 endogenously expressed on …; assay: flow cytometry on HCC-827 cells, 37 C, one-site fit of MFI, mean
Description: as §1, §4, §5

[8] = target: T3, human FOLR1-mFc_Avi-tag (sAg_303); assay: ELISA, plate coated with human FOLR1-mFc_Avi-tag (sAg_303), one-site fit, mean of 3
Description: as §3

[9] = target: T1, human FOLR1 endogenously expressed on …; assay: flow cytometry on IGROV-1 cells (FOLR1 high) at 37 °C, FITC anti-human IgG detection
Description: as §1

[10] = target: CD16A on in vitro differentiated human macrophages (human, UniProt P08637 17-254); assay: cell-based or functional assay
[11] = target: T1, human FOLR1 endogenously expressed on …; assay: flow cytometry on NCI-H2110 cells, 37 C, one-site fit of MFI, mean
Description: as §1, §4, §5

[12] = target: T1, human FOLR1 endogenously expressed on …; assay: flow cytometry on IGROV-1 cells, 37 C, one-site fit of MFI, mean
Description: as §1, §4, §5

[13] = target: T6, human CD16A (158F) expressed on CHO cells (cAg_34) (human, UniProt P08637 17-254); assay: flow cytometry on huCD16A (158F)-transfected CHO cells (cAg_34), on ice, FITC goat anti-human IgG detection
T6 construct: also called huCD16A-transfected CHO cells
Description: as §2

[14] = target: T5, CD16A endogenously expressed on primary …; assay: flow cytometry on primary human NK cells, with against without 10 mg/mL polyclonal human IgG
Description: (§7) 4° C., and resuspended in 50 μL/well of diluted antibody constructs. […] After 40-50 minutes' incubation at 37° C., cells were washed 3-times with ice-cold FACS buffer. […] After the final incubation step, cells were washed 2-times with ice-cold FACS buffer, and the cell pellet was resuspended in 50 μL FACS buffer. Fluorescence intensity of >1×10⁴ viable cells was analyzed by flow cytometry and the median fluorescence intensity (MFI) was determined for each sample.
(§8) Equilibrium dissociation constants (KD) of antibody binding were calculated by plotting MFI values and fitting a non-linear regression model for one-site binding to hyperbolic dose-response curves using GraphPad Prism.

[15] = target: T5, CD16A endogenously expressed on primary …; assay: flow cytometry on primary human NK cells at 37 °C, biotinylated antibody, streptavidin-FITC, in the presence of 10 mg/mL polyclonal human IgG (competitor)
Description: as §6

[16] = target: T1, human FOLR1 endogenously expressed on …; assay: cell-based or functional assay
[17] = target: T5, CD16A endogenously expressed on primary …; assay: flow cytometry on primary human NK cells, biotinylated antibody, 37 C, with 10 mg/mL polyclonal human IgG as competitor, mean of 4
Description: as §7, §8

[18] = target: T5, CD16A endogenously expressed on primary …; assay: flow cytometry on primary human NK cells, biotinylated antibody, 37 C, without IgG, mean of 4
Description: as §7, §8

T1 sequence (P15328 25-234): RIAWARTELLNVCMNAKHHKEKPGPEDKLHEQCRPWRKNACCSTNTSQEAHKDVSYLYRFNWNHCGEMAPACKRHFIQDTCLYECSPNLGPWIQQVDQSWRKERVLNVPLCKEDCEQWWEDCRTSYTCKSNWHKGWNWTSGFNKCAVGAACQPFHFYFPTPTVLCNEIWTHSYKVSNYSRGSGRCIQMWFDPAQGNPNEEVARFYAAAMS
CD16A on in vitro differentiated human macrophages, sequence (P08637 17-254 limits assumed): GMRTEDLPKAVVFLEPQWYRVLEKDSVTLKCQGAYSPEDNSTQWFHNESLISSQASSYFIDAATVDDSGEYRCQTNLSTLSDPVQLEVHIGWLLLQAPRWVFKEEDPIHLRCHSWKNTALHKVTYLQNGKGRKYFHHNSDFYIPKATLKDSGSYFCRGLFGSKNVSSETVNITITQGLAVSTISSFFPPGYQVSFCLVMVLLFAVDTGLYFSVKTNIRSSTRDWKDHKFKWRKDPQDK
T5 sequence (P08637 17-254 limits assumed): as above
T3 sequence (P15328 25-234 limits assumed): as the sequence (P15328 25-234) above
T2 sequence (P08637 17-254 F176V limits assumed): as the sequence (P08637 17-254 limits assumed) above, with F160V counted along it
T6 sequence (P08637 17-254 limits assumed): as the sequence (P08637 17-254 limits assumed) above
T4 sequence (Q8SPW2 17-254): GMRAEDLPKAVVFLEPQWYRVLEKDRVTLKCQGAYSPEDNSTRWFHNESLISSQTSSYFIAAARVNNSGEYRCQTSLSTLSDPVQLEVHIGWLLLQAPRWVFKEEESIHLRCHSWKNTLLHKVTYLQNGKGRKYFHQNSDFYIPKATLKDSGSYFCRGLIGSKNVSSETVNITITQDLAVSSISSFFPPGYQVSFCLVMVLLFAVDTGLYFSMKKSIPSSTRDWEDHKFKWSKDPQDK

B1: scFv-IgAb_162 (FOLR1×RSV) (bispecific antibody)
heavy: EVQLVESGGGVVQPGRSLRLSCSASGFTFSGYGLSWVRQAPGKGLEWVAMISSGGSYTYYADSVKGRFAISRDNAKNTLFLQMDSLRPEDTGVYFCARHGDDPAWFAYWGQGTPVTVSSASTKGPSVFPLAPSSKSTSGGTAALGCLVKDYFPEPVTVSWNSGALTSGVHTFPAVLQSSGLYSLSSVVTVPSSSLGTQTYICNVNHKPSNTKVDKKVEPKSCDKTHTCPPCPAPEFEGGPSVFLFPPKPKDTLMISRTPEVTCVVVAVSHEDPEVKFNWYVDGVEVHNAKTKPREEQYNSTYRVVSVLTVLHQDWLNGKEYKCKVSNKALPAPIEKTISKAKGQPREPQVYTLPPSREEMTKNQVSLTCLVKGFYPSDIAVEWESNGQPENNYKTTPPVLDSDGSFFLYSKLTVDKSRWQQGNVFSCSVMHEALHNHYTQKSLSLSPGGGGGSGGGGSQVTLRESGPALVKPTQTLTLTCTFSGFSLSTAGMSVGWIRQPPGKALEWLADIWWDDKKHYNPSLKDRLTISKDTSKNQVVLKVTNMDPADTATYYCARDMIFNFYFDVWGQGTTVTVSSGGSGGSGGSGGSGGSGGSDIQMTQSPSTLSASVGDRVTITCSASSRVGYMHWYQQKPGKAPKLLIYDTSKLASGVPSRFSGSGSGTEFTLTISSLQPDDFATYYCFQGSGYPFTFGGGTKVEIK
light: DIQLTQSPSSLSASVGDRVTITCSVSSSISSNNLHWYQQKPGKAPKPWIYGTSNLASGVPSRFSGSGSGTDYTFTISSLQPEDIATYYCQQWSSYPYMYTFGQGTKVEIKRTVAAPSVFIFPPSDEQLKSGTASVVCLLNNFYPREAKVQWKVDNALQSGNSQESVTEQDSKDSTYSLSSTLTLSKADYEKHKVYACEVTHQGLSSPVTKSFNRGEC
notes: also called FOLR1/RSV scFv-IgAb_162; FOLR1×RSV(NIST); copies: 2 + 2
EC50 (read off the curve) [1]: ~2 nM
binding result [2]: no binding (tested: 1000 nM)
EC50 (read off the curve) [3]: ~0.05 nM
binding result [4]: no binding (tested: 1000 nM)
Kd [5]: 2.5 nM
binding result [6]: no binding (tested: about 500 nM)
Kd [7]: 3.7 nM
Kd [8]: 0.06 nM
EC50 (read off the curve) [9]: ~4 nM
Phagocytosis [%], 4 h ADCP, DK-MG cells [10]: 0%
Phagocytosis [%], 4 h ADCP, HCC-78 cells [10]: 0%
Phagocytosis [%], 4 h ADCP, HeLa cells [10]: 0%
Kd [11]: 3 nM
Kd [12]: 5.2 nM
binding result [13]: no binding (tested: 1000 nM)

B2: scFv-IgAb_444 (RSV×CD16A) (bispecific antibody)
chain 1: QVTLRESGPALVKPTQTLTLTCTFSGFSLSTAGMSVGWIRQPPGKALEWLADIWWDDKKHYNPSLKDRLTISKDTSKNQVVLKVTNMDPADTATYYCARDMIFNFYFDVWGQGTTVTVSSASTKGPSVFPLAPSSKSTSGGTAALGCLVKDYFPEPVTVSWNSGALTSGVHTFPAVLQSSGLYSLSSVVTVPSSSLGTQTYICNVNHKPSNTKVDKKVEPKSCDKTHTCPPCPAPEFEGGPSVFLFPPKPKDTLMISRTPEVTCVVVAVSHEDPEVKFNWYVDGVEVHNAKTKPREEQYNSTYRVVSVLTVLHQDWLNGKEYKCKVSNKALPAPIEKTISKAKGQPREPQVYTLPPSREEMTKNQVSLTCLVKGFYPSDIAVEWESNGQPENNYKTTPPVLDSDGSFFLYSKLTVDKSRWQQGNVFSCSVMHEALHNHYTQKSLSLSPGGGGGSGGGGSGGGGSGGGGSGGGGSGGGGSSYELTQPLSVSVALGQTARITCGGNNIGSKSVHWYQQKPGQAPVLVIYQDKKRPSGIPERFSGSNSGNTATLTISRAQAGDEADYYCQVWDDYIVLFGCGTKLTVLGGSGGSGGSGGSGGSGGSGGSQVQLVQSGAEVKKPGASVKVSCKASGYTFTNYYMQWVRQAPGQCLEWMGIINPSGGVTSYAQKFQGRVTMTRDTSTSTVYMELSSLRSEDTAVYYCARGSAYYYDFADYWGQGTLVTVSSG
chain 2: DIQMTQSPSTLSASVGDRVTITCSASSRVGYMHWYQQKPGKAPKLLIYDTSKLASGVPSRFSGSGSGTEFTLTISSLQPDDFATYYCFQGSGYPFTFGGGTKVEIKRTVAAPSVFIFPPSDEQLKSGTASVVCLLNNFYPREAKVQWKVDNALQSGNSQESVTEQDSKDSTYSLSSTLTLSKADYEKHKVYACEVTHQGLSSPVTKSFNRGEC
notes: also called RSV/CD16A scFv-IgAb_444; RSV(NIST)×CD16A
fold loss in KD induced by IgG [14]: 5 fold
EC50 (read off the curve) [6]: ~4 nM
EC50 (read off the curve) [15]: 10 to 20 nM
binding result [9]: no binding (tested: about 500 nM)
Phagocytosis [%], 4 h ADCP, DK-MG cells [16]: 0%
Phagocytosis [%], 4 h ADCP, HCC-78 cells [16]: 0%
Phagocytosis [%], 4 h ADCP, HeLa cells [16]: 0%
Kd [17]: 19.9 nM
Kd [18]: 3.8 nM
